Data taken from the supplement of paper PMC12764529.
± gives the half width of the 95% confidence interval.

Assay: folding stability dG unfold from trypsin proteolysis; higher = more stable
Procedure: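 Folding stability of de novo designed mini-proteins (<80 aa, no Cys; designed by TrROS, TrMRF, ProteinMPNN and the joint model) was measured by cDNA display proteolysis with trypsin and chymotrypsin. Each protease was used at 11 concentrations in a threefold dilution series plus a no-protease condition. K50 was inferred by Bayesian fitting of sequencing counts, and dG unfold was derived against a sequence-predicted unfolded-state K50 (Tsuboyama et al. method). Sequences shown include variable-length N-terminal GS-type padding (SAGGSAGG...) inside a display construct carrying a PA tag. Rows were kept only if the AF2 dimer inter-PAE was >15, to exclude likely homo-oligomers.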

| Sequence | folding stability dG unfold |
| --- | --- |
| SAGGSAGGYVEVTIMIPPDDLDEIKEIAEPFGFTSVETERVPDNPMVVVKIEVKIPKEDDKDNKSAGGSAGG [r6_273_TrROS] | 1.79 ± 0.226 kJ/mol |
| SAGGSAGGSAGMKPGQVVIYKIKIPLPDDGEPLFEIPIMYPVGMPEEQAKDFAKEFADKFSAGGSAGGSAGG [r11_516_TrROS] | -1.71 ± 0.502 kJ/mol |
| SAGGEPIKIKIDSVQEQPNPDGGPYLYVKITYPDGGRQTGMFDSPEDFKSQLEGEPGFKKIEIEPIRSAGGS [r16_757_TrROS] | -3.51 ± 2.18 kJ/mol |
| SAGGSAGGSAGGMTKISVNIVIYDPKNNTTKIIPITMSESEIKKVKEELVPKNMSAKILSAGGSAGGSAGGS [r10_397_JUSTAS] | 3.54 ± 0.502 kJ/mol |
| SAGGSAGGSAGGSSRTIKLDGYKITVHPNSVHIYPPKNGKPVTVPMDNPEVQDLIKELISAGGSAGGSAGGS [r4_353_TrROS] | -4.98 ± 1.3 kJ/mol |
| SAGGSAGGSAGGMVIEIDVPPSVPASEVKEKVKAELLKKGVPKDTEIKVIVKPKNPELLSAGGSAGGSAGGS [r10_746_JUSTAS] | -2.74 ± 0.837 kJ/mol |
| SAMTLTVPPSLSATDAAGNAIPPSLSIEVEKVTPLPETGKVVAEVKITDPETGETTTRPLTITLPPGEASAG [r14_258_JUSTAS] | 3.46 ± 0.201 kJ/mol |
| SAGGSAGGSAGNIAERLQEAFPDYGIEVTDITPNGSITVTSRGPPGHRKKIQKAVKELLNSAGGSAGGSAGG [r11_418_TrROS] | -3.68 ± 2.38 kJ/mol |
| SADFKPEGPSNNALVWKNPNSGKMFMIYPSDDNIEVQEIEYDPGNNKPEPETERVPLPEDDRDDLKDLLSAG [r14_245_TrROS] | -2.78 ± 0.586 kJ/mol |
| SAGGSAGGSAGGHIVIPNKRWYIQFPNGKPIGEHRFDTAEDIAKELPPNMRIVPPGDPISAGGSAGGSAGGS [r10_310_TrROS] | 1.18 ± 1.34 kJ/mol |
| SAGGSAGGSAGGMPIRVYRDPSNPDVVYVETPESTRDVSLEEVERLPVDEIRSAAEVAAESAGGSAGGSAGG [r17_88_JUSTAS] | 1.4 ± 0.0879 kJ/mol |
| SAGGMVVRTPDGSTVEITVTDPASGSPYRSTDPGGGVEAAIAAINASPAYPNATVSITRYDAGTASPASAGG [r13_914_JUSTAS] | -1.2 ± 0.418 kJ/mol |
| SAGGSAGGSSDTRTIPIPIDGYPVRISIDMNGSQTIEFPNPENKDDLKDLIPPGYNITEIEPWSAGGSAGGS [r12_9_TrROS] | -4.18 ± 1.51 kJ/mol |
| SAGGSAGGSAGGKVRVETDPERGYYKVKIRNPNNGRKIKVPVPMDDPKKAKKQAKELAKSAGGSAGGSAGGS [r10_1117_TrROS] | -3.61 ± 2.09 kJ/mol |
| SAGGSAGGSDILKNLPPGHKRVEIMFIPNMPMEKMKRMAKEIAPILRKRGVDVEIKVIPPDEMSAGGSAGGS [r12_456_TrROS] | 3.59 ± 0.711 kJ/mol |
| SAGGSAVVEIPIPPSSLDVRALIVPTDGPLTTVLVEETLPDGTPRVRLYRYDPARGEVRPLAEELPSAGGSA [r2_402_JUSTAS] | -2.81 ± 0.711 kJ/mol |
| SAGGSAGGSAGGSSVSSLSIKNPPSDPKGILSSVSPEGKVVLTTVNPDGSLTTTVVDVNSAGGSAGGSAGGS [r4_177_JUSTAS] | 3.29 ± 0.272 kJ/mol |
| SAGGSAGGSGMKPAKVLKVEEFFDPKNNTSFKKVEAELPDRKITLELPPGEPVDENSTILVEESAGGSAGGS [r20_49_JUSTAS] | -1.79 ± 1.17 kJ/mol |
| SAGGSAGGSAGGLSPESFYTVEVYNKDGTKLGPAQVVSTGTGKVVIPIEPDVEIILNPSSAGGSAGGSAGGS [r10_1257_JUSTAS] | 1.45 ± 0.711 kJ/mol |
| SAGGSAGGSAGGKKKVKVGNKEVEIVKEEEKEGKLIIKDKKTGKKIEISKEDLKKKKIKLSAGGSAGGSAGG [r7_391_TrROS_Hall] | -1.76 ± 2.18 kJ/mol |

Assay: folding stability dG unfold (combined trypsin and chymotrypsin); higher = more stable
Outline: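 Designed mini-proteins (under 80 residues, no cysteine) in a PA-tagged cDNA display construct were digested with trypsin and chymotrypsin. Each protease was used at 11 concentrations (threefold dilutions) plus a no-protease condition, followed by sequencing. K50 was inferred by Bayesian fitting of sequencing counts, and unfolding free energy was derived against a sequence-predicted unfolded-state K50 and a shared folded-state K50, per protease or combined. Only designs with AlphaFold2 dimer inter-PAE above 15 were kept.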

| Sequence | folding stability dG unfold |
| --- | --- |
| SAGGSAGGYVEVTIMIPPDDLDEIKEIAEPFGFTSVETERVPDNPMVVVKIEVKIPKEDDKDNKSAGGSAGG [r6_273_TrROS] | -0.58 ± 0.837 kJ/mol |
| SAGGSAGGSAGMKPGQVVIYKIKIPLPDDGEPLFEIPIMYPVGMPEEQAKDFAKEFADKFSAGGSAGGSAGG [r11_516_TrROS] | -2.45 ± 1 kJ/mol |
| SAGGEPIKIKIDSVQEQPNPDGGPYLYVKITYPDGGRQTGMFDSPEDFKSQLEGEPGFKKIEIEPIRSAGGS [r16_757_TrROS] | < -4.18 kJ/mol |
| SAGGSAGGSAGGMTKISVNIVIYDPKNNTTKIIPITMSESEIKKVKEELVPKNMSAKILSAGGSAGGSAGGS [r10_397_JUSTAS] | 0.801 ± 1 kJ/mol |
| SAGGSAGGSAGGSSRTIKLDGYKITVHPNSVHIYPPKNGKPVTVPMDNPEVQDLIKELISAGGSAGGSAGGS [r4_353_TrROS] | < -4.18 kJ/mol |
| SAGGSAGGSAGGMVIEIDVPPSVPASEVKEKVKAELLKKGVPKDTEIKVIVKPKNPELLSAGGSAGGSAGGS [r10_746_JUSTAS] | < -4.18 kJ/mol |
| SAMTLTVPPSLSATDAAGNAIPPSLSIEVEKVTPLPETGKVVAEVKITDPETGETTTRPLTITLPPGEASAG [r14_258_JUSTAS] | 2.12 ± 0.795 kJ/mol |
| SAGGSAGGSAGNIAERLQEAFPDYGIEVTDITPNGSITVTSRGPPGHRKKIQKAVKELLNSAGGSAGGSAGG [r11_418_TrROS] | < -4.18 kJ/mol |
| SADFKPEGPSNNALVWKNPNSGKMFMIYPSDDNIEVQEIEYDPGNNKPEPETERVPLPEDDRDDLKDLLSAG [r14_245_TrROS] | < -4.18 kJ/mol |
| SAGGSAGGSAGGHIVIPNKRWYIQFPNGKPIGEHRFDTAEDIAKELPPNMRIVPPGDPISAGGSAGGSAGGS [r10_310_TrROS] | < -4.18 kJ/mol |
| SAGGSAGGSAGGMPIRVYRDPSNPDVVYVETPESTRDVSLEEVERLPVDEIRSAAEVAAESAGGSAGGSAGG [r17_88_JUSTAS] | -0.862 ± 0.669 kJ/mol |
| SAGGMVVRTPDGSTVEITVTDPASGSPYRSTDPGGGVEAAIAAINASPAYPNATVSITRYDAGTASPASAGG [r13_914_JUSTAS] | -2.03 ± 0.669 kJ/mol |
| SAGGSAGGSSDTRTIPIPIDGYPVRISIDMNGSQTIEFPNPENKDDLKDLIPPGYNITEIEPWSAGGSAGGS [r12_9_TrROS] | < -4.18 kJ/mol |
| SAGGSAGGSAGGKVRVETDPERGYYKVKIRNPNNGRKIKVPVPMDDPKKAKKQAKELAKSAGGSAGGSAGGS [r10_1117_TrROS] | < -4.18 kJ/mol |
| SAGGSAGGSDILKNLPPGHKRVEIMFIPNMPMEKMKRMAKEIAPILRKRGVDVEIKVIPPDEMSAGGSAGGS [r12_456_TrROS] | 0.495 ± 1.51 kJ/mol |
| SAGGSAVVEIPIPPSSLDVRALIVPTDGPLTTVLVEETLPDGTPRVRLYRYDPARGEVRPLAEELPSAGGSA [r2_402_JUSTAS] | < -4.18 kJ/mol |
| SAGGSAGGSAGGSSVSSLSIKNPPSDPKGILSSVSPEGKVVLTTVNPDGSLTTTVVDVNSAGGSAGGSAGGS [r4_177_JUSTAS] | 1.73 ± 0.837 kJ/mol |
| SAGGSAGGSGMKPAKVLKVEEFFDPKNNTSFKKVEAELPDRKITLELPPGEPVDENSTILVEESAGGSAGGS [r20_49_JUSTAS] | -3.18 ± 1.97 kJ/mol |
| SAGGSAGGSAGGLSPESFYTVEVYNKDGTKLGPAQVVSTGTGKVVIPIEPDVEIILNPSSAGGSAGGSAGGS [r10_1257_JUSTAS] | -0.571 ± 0.879 kJ/mol |
| SAGGSAGGSAGGKKKVKVGNKEVEIVKEEEKEGKLIIKDKKTGKKIEISKEDLKKKKIKLSAGGSAGGSAGG [r7_391_TrROS_Hall] | < -4.18 kJ/mol |
